Experimental findings from paper PMC6856630, “Structures of neurexophilin–neurexin complexes reveal a regulatory mechanism of alternative splicing” (The EMBO Journal, 2019) are described below.

Positions count from the first letter of the chain named. Names may count otherwise. “And” between values parts separate entries of the source, which are not always exact repeats. Identical values can stand only once.

The labels stand for the following.
B1: Nrxn1 LNS2^SS2−, AviTag-His, biotinylated (BLI) (domain or fragment)
chain: not shown
modifications: biotin on the AviTag (BirA)
notes: numbers count on: UniProt Q9CS84-1 (isoform 1a); Igκ signal peptide at the N-terminus; source: 293F cells, transfected, secreted, purified (Ni-NTA, BirA biotinylation, Superdex Increase 200); not shown: AviTag, C-terminal, kept; His6, C-terminal, kept
B2: Nxph3-2XFLAG-His (rat neurexophilin-3, 50-252) (ligand, UniProt Q9Z2N5 50-252, looked up)
chain: RGHISPKSRPLANSTLLGLLAPPGEVWGILGQPPNRPKQSPLPSTKVKKIFGWGDFYSNIKTVALNLLVTGKIVDHGNGTFSVHFRHNATGQGNISISLVPPSKAVEFHQEQQIFIEAKASKIFNCRMEWEKVERGRRTSLCTHDPAKICSRDHAQSSATWSCSQPFKIVCVYIAFYSTDYRLVQKVCPDYNYHSDTPYYPSG
modifications: glycans (sites not given)
notes: Neurexophilin-3, rat, residues 50-252; Expressed with an Igκ signal peptide at the N-terminus; HRV 3C site before the tags, not cut; source: 293F cells, BacMam expression system, secreted; purification not described; not shown: 2xFLAG, C-terminal, kept; His6, C-terminal, kept
B3: Nrxn3 LNS2^SS2A+, AviTag-His, biotinylated (BLI) (domain or fragment)
chain: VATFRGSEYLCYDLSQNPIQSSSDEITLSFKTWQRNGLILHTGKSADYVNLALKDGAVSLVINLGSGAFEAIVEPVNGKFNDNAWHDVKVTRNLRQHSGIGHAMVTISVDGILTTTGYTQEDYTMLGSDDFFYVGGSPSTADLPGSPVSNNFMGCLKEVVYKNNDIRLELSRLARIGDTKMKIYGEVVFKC
modifications: biotin on the AviTag (BirA)
B4: Nxph1-2XFLAG-His (mature rat neurexophilin-1, 118-271, glycosylated) (ligand, UniProt Q63366 118-271, looked up)
chain: MFGWGDFHSNIKTVKLNLLITGKIVDHGNGTFSVYFRHNSTGQGNVSVSLVPPTKIVEFDLAQQTVIDAKDSKSFNCRIEYEKVDKATKNTLCNYDPSKTCYQEQTQSHVSWLCSKPFKVICIYISFYSTDYKLVQKVCPDYNYHSDTPYFPSG
modifications: N-linked glycans at N146, N156 and N162
notes: Neurexophilin-1, rat, mature form, residues 118-271; Expressed with an Igκ signal peptide at the N-terminus; HRV 3C site before the tags, not cut for the biochemical studies; source: 293F cells, BacMam expression system, secreted; purification of Nxph1 alone not described; not shown: 2xFLAG, C-terminal, kept; His6, C-terminal, kept
B5: Nxph1^3ND (mature rat neurexophilin-1, 118-271, N146D/N156D/N162D) (ligand, UniProt Q63366 118-271, looked up)
chain: B4 chain with N29D, N39D, N45D
notes: Neurexophilin-1, rat, mature form, residues 118-271, the three N-linked glycosylation sites mutated to aspartic acid; Expressed with an Igκ signal peptide at the N-terminus; tags removed with HRV 3C protease; also called Nxph1 (in the crystal structures); source: HEK293S GnTI- cells, BacMam, co-expressed with LNS2, complex purified (HisTrap, StrepTrap, 3C cleavage, Mono Q); not shown: 2xFLAG, …
B6: Nrxn1 LNS2^SS2− (I401Q), AviTag-His, biotinylated (BLI) (domain or fragment)
chain: not shown
modifications: biotin on the AviTag (BirA)
notes: as for B1

Data set [1] has as its target B2. The data set can be described thus: BLI; Octet RED384; biotinylated neurexin LNS2 on streptavidin tips, Nxph in solution; 25°C, PBS pH 7.4, 50 nM TCEP, 1% BSA; global fit, double reference subtraction. Conditions: both partners purified. For orientation: Biolayer interferometry detects binding as a change in optical thickness at a sensor tip.
Data set [2] concerns the molecule itself. The data set can be described thus: SEC-MALS; Superdex 200 10/300, 0.5 ml/min, PBS pH 7.4. (SEC sorts molecules by how far they enter the pores of the column.)
Data set [3] has as its target B4. As to the kind of experiment: BLI; Octet RED384; biotinylated neurexin LNS2 on streptavidin tips, Nxph in solution; 25°C, PBS pH 7.4, 50 nM TCEP, 1% BSA; global fit, double reference subtraction. Conditions: both partners purified.
Data set [4] has as its target B6. The description is as above. To be noted: both partners purified.
The target of data set [5] is T1, Nrxn1 LNS2^SS2A+, AviTag-His, biotinylated (BLI) (mouse, UniProt Q9CS84-1 283-480, 283–386; 394–480, biotin on the AviTag (BirA)).
T1 construct: numbers count on: UniProt Q9CS84-1 (isoform 1a); Igκ signal peptide at the N-terminus; source: 293F cells, transfected, secreted, purified (Ni-NTA, BirA biotinylation, Superdex Increase 200); not shown: AviTag, C-terminal, kept; His6, C-terminal, kept
T1 sequence (Q9CS84 other isoform, or with tags, fused parts or gaps 283–386/394–480 | 283–386/394–480): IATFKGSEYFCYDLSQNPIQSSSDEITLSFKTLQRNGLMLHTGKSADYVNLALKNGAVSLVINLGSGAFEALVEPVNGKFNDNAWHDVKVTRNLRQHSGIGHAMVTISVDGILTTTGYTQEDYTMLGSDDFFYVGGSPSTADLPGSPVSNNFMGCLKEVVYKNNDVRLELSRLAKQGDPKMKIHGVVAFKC
The description is as above. Conditions: both partners purified.

In data set [6] the target is T2, Nrxn1 LNS2^SS2A+ (I401Q), AviTag-His, biotinylated (BLI) (mouse, UniProt Q9CS84-1 283-480, 283–386; 394–480 | I401Q, biotin on the AviTag (BirA)).
T2 construct: numbers count on: UniProt Q9CS84-1 (isoform 1a); Igκ signal peptide at the N-terminus; source: 293F cells, transfected, secreted, purified (Ni-NTA, BirA biotinylation, Superdex Increase 200); not shown: AviTag, C-terminal, kept; His6, C-terminal, kept
T2 sequence (Q9CS84 other isoform, or with tags, fused parts or gaps with the stated changes): as the sequence (Q9CS84 other isoform, or with tags, fused parts or gaps 283–386/394–480 | 283–386/394–480) above, with I112Q counted along it
The data set is described as above. To be noted: both partners purified.

Data set [7] concerns the target B1. Described as above. To be noted: both partners purified.
Data set [8] deals with the molecule itself. As to the kind of experiment: SEC-MALS + other: SEC-SAXS; Nxph1 alone; SEC-MALS on Superdex 200 10/300 in PBS pH 7.4, SEC-SAXS on Superdex Increase 200 3.2/300.
Data set [9] concerns the target T3, Nrxn1 LNS2^SS2A+, crystallographic construct (mouse, UniProt Q9CS84-1 283-480, 283–386; 394–480).
T3 construct: Neurexin-1 alpha, mouse, LNS2 domain with the eight-residue SS2A insert (379-386), residues 283-386 joined to 394-480; numbers count on: UniProt Q9CS84-1 (isoform 1a); Expressed with an Igκ signal peptide at the N-terminus; not shown: Twin-Strep, C-terminal, cleaved
The data set can be described thus: SEC-MALS; Superdex 200 10/300, 0.5 ml/min, PBS pH 7.4. To be noted: both partners purified.

Data set [10] has as its target T4, Nrxn1 LNS2^SS2− (C293A), crystallographic construct (mouse, UniProt Q9CS84-1 283-480, 283–378; 394–480 | C293A).
T4 construct: Neurexin-1 alpha, mouse, LNS2 domain without insert in splice site 2, residues 283-378 joined to 394-480; numbers count on: UniProt Q9CS84-1 (isoform 1a); Expressed with an Igκ signal peptide at the N-terminus; source: HEK293S GnTI- cells, BacMam, co-expressed with Nxph1^3ND, complex purified (HisTrap, StrepTrap, 3C cleavage, Mono Q); not shown: Twin-Strep, C-terminal, cleaved
The description is as above. Conditions: both partners purified.

T4 sequence (Q9CS84 other isoform, or with tags, fused parts or gaps with the stated changes): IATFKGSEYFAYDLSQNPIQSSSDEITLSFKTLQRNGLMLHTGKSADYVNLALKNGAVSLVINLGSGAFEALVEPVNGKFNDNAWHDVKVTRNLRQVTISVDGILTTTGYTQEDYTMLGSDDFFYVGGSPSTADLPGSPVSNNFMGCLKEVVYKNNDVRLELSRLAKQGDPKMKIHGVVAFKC
T3 sequence (Q9CS84 other isoform, or with tags, fused parts or gaps 283–386/394–480 | 283–386/394–480): as the sequence (Q9CS84 other isoform, or with tags, fused parts or gaps 283–386/394–480 | 283–386/394–480) above

For orientation: Kd means the free concentration of one partner at which half of the binding sites on the other are occupied at equilibrium, for simple one-to-one binding. What is called koff is the rate constant with which the complex falls apart. The low end stands for a long-lived complex, the high end for a short-lived complex. The term kon denotes a measure of how fast the partners come together. Consider B1, for which, in [1], binding was put at a Kd of 260 nM, the koff is 0.0001 s⁻¹ and the association rate constant (kon) was found to be 209 M⁻¹ s⁻¹.

For the molecule B2, in data set [2], the binding result is recorded as “binds”.

B3: in data set [3], binding was put at a Kd of 31.4 nM, the koff amounted to 6.4e-05 s⁻¹ and the kon turned out to be 2060 M⁻¹ s⁻¹.

What is called stoichiometry N is the number of molecules, sites or subunits per partner or assembly. Take B4: the Kd in data set [4] came to 16400 nM; in [5], 49 nM; in [6], 472 nM; in data set [7], 299 nM. Moreover, the koff in data set [4] worked out at 0.0034 s⁻¹; in data set [5], 9.7e-05 s⁻¹; in data set [6] it was 0.0002 s⁻¹; in [7] it was 0.00012 s⁻¹. The kon in [4] was found to be 220 M⁻¹ s⁻¹; in data set [5] it was 2040 M⁻¹ s⁻¹; in [6], 419 M⁻¹ s⁻¹; in data set [7], 399 M⁻¹ s⁻¹. In addition, in [8], the “stoichiometry N” value was 2 and 4.

For B5, the “stoichiometry N” value in data set [9] and in [10] was 1 in each case.

With B6, in data set [1], binding was put at a Kd of 3340 nM, the koff came out at 0.00064 s⁻¹ and the kon worked out at 194 M⁻¹ s⁻¹.
